# Experimental data published in article PMC4351179.
# Target: human DNA polymerase theta (Polθ), polymerase domain, wild type (human)
# Test: SEC
substance,measurement,value
"human DNA polymerase theta (Polθ), polymerase domain, wild type (domain or fragment)",stoichiometry N,2
